Assay results: US20060193821, “Aptamers to the human IL-12 cytokine family and their use as autoimmune disease therapeutics” (published 2006)

Tests used:
[1] = biological target: T1, IL-23 (human, p19/p40 heterodimer) (Homo sapiens, UniProt Q9NPF7;P29460 SEQ:20-189,SEQ:23-328); assay: filter; +tRNA; details: tags: R&D Systems, carrier free
[2] = biological target: IL-12 (human, p35/p40 heterodimer) (Homo sapiens, UniProt P29459;P29460 SEQ:57-253,SEQ:23-328); assay: filter; tRNA
Experimental: Monitoring Progress of rRfY Selection. Dot blot binding assays were performed throughout the selections to monitor the protein binding affinity of the pools. Trace ³²P-labeled RNA was combined with a dilution series of h-IL-23 and incubated at room temperature for 30 minutes in 1×SHMCK (20 mM Hepes, 120 mM NaCl, 5 mM KCl, 1 mM MgCl₂, 1 mM CaCl₂, pH 7.4) plus 0.1 mg/mL tRNA for a final volume of 20 μL. The binding reactions were analyzed by nitrocellulose filtration using a Minifold I dot-blot, 96-well vacuum filtration manifold (Schleicher & Schuell, Keene, N.H.). A three-layer filtration medium was used, consisting (from top to bottom) of Protran nitrocellulose (Schleicher & Schuell), Hybond-P nylon (Amersham Biosciences) and GB002 gel blot paper (Schleicher & Schuell). RNA that is bound to protein is captured on the nitrocellulose filter, whereas the non-protein bound RNA is captured on the nylon filter. The gel blot paper was included simply as a supporting medium for the other filters. Following filtration, the filter layers were separated, dried and exposed on a phosphor screen (Amersham Biosciences, Piscataway, N.J.) and quantified using a Storm 860 Phosphorimager® blot imaging system (Amersham Biosciences).
When a significant positive ratio of binding of RNA in the presence of h-IL-23 versus in the absence of h-IL-23 was seen, the pools were cloned using a TOPO TA cloning kit (Invitrogen, Carlsbad, Calif.) according to the manufacturer's instructions. For the h-IL-23 and X-IL-23 selections, the Round 8 pool templates were cloned, and 32 individual clones from each selections were assayed in a 1-point dot blot screen (+/−75 nM h-IL-23, as well as a separate screen at +/−75 nM h-IL-12). For the PN-IL-23 selection, the Round 10 pool was cloned and sequenced, and 8 unique clones were assayed for protein binding in a 1-point dot blot screen (+/−200 nM h-IL-23 and a separate screen at +/−200 nM h-IL-12). Subsequently, the Round 10 PN-IL-23 pool was re-cloned for further sequences, as well as the R12 PN-IL-23 pool, and the clones were assayed for protein binding in a 1 point do blot screen (+/−100 nM h-IL-23 or +/−200 nM h-IL-12).

[3] = biological target: T1, IL-23 (human, p19/p40 heterodimer); assay: filter; SHMCK, tRNA; details: tags: R&D Systems, carrier free
Outline: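 Trace ³²P-labeled RNA incubated with a dilution series of h-IL-23 for 30 min at room temperature in 1×SHMCK (pH 7.4, 1 mM MgCl₂, 1 mM CaCl₂) plus 0.1 mg/mL tRNA. Bound RNA captured on nitrocellulose, free RNA on nylon; quantified by phosphorimaging. Clone screens used single points of 75, 100 or 200 nM IL-23 or IL-12.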

[4] = biological target: T1, IL-23 (human, p19/p40 heterodimer); assay: filter; dot blot; DPBS with Ca and Mg, 0.1 mg/mL BSA, 30 min RT; details: tags: R&D Systems, carrier free, label: 5'-32P
Experimental: The dot blot binding assay previously described was used to characterize the relative potency of the majority of the aptamers synthesized. For KD determination, chemically synthesized aptamers were purified using denaturing polyacrylamide gel electrophoresis, 5′end labeled with γ-³²P ATP and were tested for direct binding to full human IL-23. An 8 point protein titration was used in the dot blot binding assay (either {100 nM, 30 nM, 10 nM, 3 nM, 1 nM, 300 pM, 100 pM, 0 pM} or {10 nM, 3 nM, 1 nM, 300 pM, 100 pM, 30 pM, 10 pM, 0 pM}) in Dulbecco's PBS (with Mg⁺⁺ and Ca⁺⁺) with 0.1 mg/mL BSA. KD values were calculated by fitting the equation y=(max/(1+K/protein))+yint using KaleidaGraph (KaleidaGraph v. 3.51, Synergy Software). Sequences of the ARC979 derivatives synthesized, purified and assayed for binding to IL-23 as well as the results of the protein binding characterization are tabulated below in Tables 29 and 30.

[5] = biological target: T1, IL-23 (human, p19/p40 heterodimer); assay: cell_activity; TransAM STAT3; details: tags: R&D Systems, carrier free
Experimental: In summary, the cell-based assay was conducted by isolating the peripheral blood mononuclear cells (PBMCs) from whole blood using a Histopaque gradient (Sigma, St. Louis, Mo.). The PBMCs were cultured for 3 to 5 days at 37° C./5% CO₂ in Peripheral Blood Medium (Sigma) which contains PHA, supplemented with IL-2 (100 units/mL) (R&D Systems, Minneapolis, Minn.), to generate PHA Blasts. To test IL-23 aptamers, the PHA Blasts were washed twice with 1×PBS, then serum starved for four hours in RPMI, 0.20% FBS. After serum starvation, approximately 2 million cells were aliquotted into appropriately labeled eppendorf tubes. hIL-23 at a final constant concentration of 3 ng/mL (R&D Systems, Minneapolis, Minn.) was combined with a dilution series of various IL-23 aptamers as described in Example 1, and the cytokine/aptamer mixture was added to the aliquotted cells in a final volume of 100 μl and incubated at 37° C. for 10-12 minutes. The incubation reaction was stopped by adding 1 mL of ice-cold PBS with 1.5 mM Na₃VO₄. Cell lysates were made using the lysis buffer provided by the TransAM™ STAT 3 assay following the manufacturer's instructions. FIG. 20 depicts a flow summary of the protocol used for the cell based assay.
Full length clones from the rRfY selection described in Example 1A, and select minimized rRfY clones that were described in Example 2A. 1, were tested using the TransAM™ STAT3 activation assay. Table 34 summarizes the cell based assay data for IL-23 full length aptamers generated from the rRfY selections described in Example 1A. 1, each compared to the activity of their respective parent (full length) clone.

IL-12 (human, p35/p40 heterodimer), sequence (P29459 23-219, chain 1 of 2): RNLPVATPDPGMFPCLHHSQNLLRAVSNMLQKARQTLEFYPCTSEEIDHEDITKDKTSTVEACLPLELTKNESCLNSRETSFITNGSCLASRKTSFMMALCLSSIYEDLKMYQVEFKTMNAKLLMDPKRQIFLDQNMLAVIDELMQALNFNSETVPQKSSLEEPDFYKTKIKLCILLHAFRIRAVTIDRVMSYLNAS
IL-12 (human, p35/p40 heterodimer), sequence (P29460 23-328, chain 2 of 2): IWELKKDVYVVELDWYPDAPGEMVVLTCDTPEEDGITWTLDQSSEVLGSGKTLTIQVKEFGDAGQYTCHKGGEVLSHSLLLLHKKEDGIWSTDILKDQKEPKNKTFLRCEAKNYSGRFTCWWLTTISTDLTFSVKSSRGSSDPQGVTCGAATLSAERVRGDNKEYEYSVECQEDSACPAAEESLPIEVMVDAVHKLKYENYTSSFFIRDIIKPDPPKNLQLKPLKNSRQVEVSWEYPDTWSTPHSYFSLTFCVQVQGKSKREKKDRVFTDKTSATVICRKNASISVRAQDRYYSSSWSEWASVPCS
T1 sequence (Q9NPF7 20-189, chain 1 of 2): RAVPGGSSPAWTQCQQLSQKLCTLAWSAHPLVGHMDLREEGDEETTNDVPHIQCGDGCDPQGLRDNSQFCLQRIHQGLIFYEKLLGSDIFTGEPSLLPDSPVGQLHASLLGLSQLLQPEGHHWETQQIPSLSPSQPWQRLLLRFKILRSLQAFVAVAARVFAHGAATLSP
T1 sequence (P29460 23-328, chain 2 of 2): as the sequence (P29460 23-328, chain 2 of 2) above

Binder	Kd [1] [nM]	Kd [4] [nM]	also measured
GGCAAGGUAAUUGGGAAGUGUGGGCGGGG (mixed, deoxy A,G; 2'-OMe C,U) [ARC891]	177		
GGUGGGGAGUGCGGGCGGGGGGUCGCC (mixed, deoxy A,G; 2'-OMe C,U) [ARC797]	50		
AMX91-H8 (ssRNA, 2'-F C,U) RNA: GGGAAAAGCGAAUCAUACACAAGAACGCAUAGUCGGAUUUACCGAUCAUUCUGUGCCUUCGUGACGCUCCGCCAGAGACCAACCGAGAA			Kd [2]: 243 nM; Kd [3]: 16.6 nM
GGCAAGUAAUUGGGGAGUGCGGGCGGGG (mixed, dRmY; 2'-OMe at two As and one G as printed in Table 29; 3'-idT) [ARC1469]		49.8	
AMX86-E10 (ssRNA, 2'-F C,U) RNA: GGGAAAAGCGAAUCAUACACAAGAUUGUCUCGGAUUGGUCACUCCCAUUUUUGUUCGCUUAACGGCUCCGCCAGAGACCAACCGAGAA			Kd [2]: 905 nM; Kd [3]: 218 nM
AMX86-F11 (ssRNA, 2'-F C,U) RNA: GGGAAAAGCGAAUCAUACACAAGACCAUCGGACGAGGCGGGUCACCUUUUACGCUUUCGAGCUGGCUCCGCCAGAGACCAACCGAGAA			Kd [2]: 541 nM; Kd [3]: 256 nM
CCAGGCAAGGUAAUUGGGGAGUGCGGGCGGGGUGG (mixed, deoxy A,G; 2'-OMe C,U) [ARC890]	114		
ACAGGCAAGGUAAUUGGGGAGUGCGGGCGGGGUGU (mixed, deoxy A,G; 2'-OMe C,U) [ARC889]	115		
AMX86-H9 (ssRNA, 2'-F C,U) RNA: GGGAAAAGCGAAUCAUACACAAGAUGGUUCCCACGUGAAAGUGGCUAGCGAGUACCCCACUUAUGCUCCGCCAGAGACCAACCAAGGG			IC50 [5]: 250 nM; Kd [2]: 332 nM; Kd [3]: 105 nM
GAUGUUGGCAAGUAAUUGGGGAGUGCGGGCGGGGUUCAUC (mixed, deoxy A,G; 2'-OMe C,U; 3'-idT) [ARC897]	93		
ACAGGCAAGUAAUUGGGGAGUGCGGGCGGGGUGU (mixed, ARC1544 sugars; PS at 17 linkages 5' of deoxy residues as printed in Table 29; 3'-idT [PS at 2-3, 3-4, 4-5, 6-7, 7-8, 8-9, 10-11, 11-12, 14-15, 17-18, 18-19, 19-20, 21-22, 25-26, 27-28, 28-29, 32-33; ARC1544 sugars (2'-deoxy/2'-OMe); 3'-inverted dT at 35]) [ARC1626]		0.1	
ACAGGCAAGUAAUUGGGGAGUGCGGGCGGGGUGU (mixed, dAmCdAdGdGmCdAdAdGmUdAdAmUmUdGmGmGdGdAdGmUdGmCmGmG-s-dGmC-s-dG-s-dGmGmGmUdGmU-3T (d deoxy, m 2'-OMe, s PS, 3T idT) [PS at 25-26, 27-28, 28-29; 2'-OMe at 2,6,10,13,14,16,17,21,23,24,25,27,30,31,32,34; 2'-deoxy at other nt 1-33; 3'-inverted dT at 35]) [ARC1624]		0.4	
ACAGGCAAGUAAUUGGGGAGUGCGGGCGGGGUGU (mixed, dRmY; 3'-idT) [ARC1386]			Kd ([4]; G4 (predicted)): 1 nM
ACAGGCAAGUAAUUGGGGAGUGCGGGCGGGGUGU (mixed, dRmY with 2'-OMe at G16, G17, G23, G24, G29, G30; 3'-idT) [ARC1544]		0.9	
ACAGGCAAGUAAUUGGGGAGUGCGGGCGGGGUGU (mixed, dAmCdAdGdGmCdAdAdGmUdAdAmUmUdGmGmGdGdAdGmUdGmCmGmGdGmCdGdGmGmGmU-s-dGmU-3T (d deoxy, m 2'-OMe, s PS, 3T idT) [PS at 32-33; 2'-OMe at 2,6,10,13,14,16,17,21,23,24,25,27,30,31,32,34; 2'-deoxy at other nt 1-33; 3'-inverted dT at 35]) [ARC1625]		0.4	
ACAGGCAAGUAAUUGGGGAGUGCGGGCGGGGUGU (mixed, dRmY; 2'-OMe A7; 3'-idT) [ARC1431]		10	
ACAGGCAAGUAAUUGGGGAGUGCGGGCGGGGUGU (mixed, dRmY; 2'-OMe G15; 3'-idT) [ARC1436]		15.1	
ACAGGCAAGUAAUUGGGGAGUGCGGGCGGGGUGU (mixed, dAmCdAdGdGmCdAdAdGmUdAdAmUmUdGmGmG-s-dG-s-dA-s-dGmU-s-dGmCmGmGdGmCdGdGmGmGmUdGmU-3T (d deoxy, m 2'-OMe, s PS, 3T idT) [PS at 17-18, 18-19, 19-20, 21-22; 2'-OMe at 2,6,10,13,14,16,17,21,23,24,25,27,30,31,32,34; 2'-deoxy at other nt 1-33; 3'-inverted dT at 35]) [ARC1623]		0.2	
ACAGGCAAGUAAUUGGGGAGUGCGGGCGGGGUGU (mixed, mAmC-s-dAdGdGmC-s-dAmAmGmUmA-s-dAmUmU-s-dGmGmG-s-dG-s-dA-s-dGmU-s-dGmCmGmGmGmCmGmGmGmGmUmGmU-3T (d deoxy, m 2'-OMe, s PS, 3T idT) [PS at 2-3, 6-7, 11-12, 14-15, 17-18, 18-19, 19-20, 21-22; 2'-deoxy at 3,4,5,7,12,15,18,19,20,22; 2'-OMe at other nt 1-34; 3'-inverted dT at 35]) [ARC1756]		0.5	
CCAGGCAAGUAAUUGGGGAGUGCGGGCGGGGUGG (mixed, deoxy A,G; 2'-OMe C,U) [ARC980]	139		
UAAUUGGGGAGUGCGGGCGGGGGGUCGAUCG (mixed, deoxy A,G; 2'-OMe C,U) [ARC796]	106		
AMX86-B11 (ssRNA, 2'-F C,U) RNA: GGGAAAAGCGAAUCAUACACAAGAGUAUCAUUCGGCUGGUGGGAGAAAUCUCUGUAGAUAUAGAGCUCCGCCAGAGACCAACCGAGAA			Kd [2]: 5950 nM; Kd [3]: 180 nM
GGCAAGGUAAUUGGGUAGUGAGGGCGGGG (mixed, deoxy A,G; 2'-OMe C,U) [ARC892]	255		
AMX86-A11 (ssRNA, 2'-F C,U) RNA: GGGAAAAGCGAAUCAUACACAAGAACGGCUAGGCAUCAAUGGCCAGCAAAAAUAGUCGUGUAAUGCUCCGCCAGAGACCAACCGAGAA			Kd [2]: 182 nM; Kd [3]: 157 nM
GGCAAGUAAUUGGGGAGUGCGGGCGGGG (mixed, dRmY; 3'-idT) [ARC1468]		10	
GGCAAGGUAAUUGGGGAGUGCGGGCUGGG (mixed, deoxy A,G; 2'-OMe C,U) [ARC893]	2860		
AMX86-F12 (ssRNA, 2'-F C,U) RNA: GGGAAAAGCGAAUCAUACACAAGAGUGUUGAAUGAGCGCUGGUGGACAGAUCUUUGGUUACAGAGCUCCGCCAGAGACCAACCGAGAA			Kd [2]: 2910 nM; Kd [3]: 424 nM
